Data published in PMC9482650, “Quantitative fragmentomics allow affinity mapping of interactomes” (Nature Communications, 2022).

What was measured:
Assay in all cases: holdup assay
Set-up in all cases: key: below the threshold = too weak to quantify, mostly under pKd 3.1 to 4
Conditions in all cases: plain residues with an end cap or a label only (N-terminal biotin on a linker: ttds)
GRIP2_2, Q9C0E4 = molecular target: GRIP2_2, Q9C0E4
MPDZ_2, O75970 = molecular target: T1, MPDZ_2, O75970
T1 sequence (O75970 252-347, limits assumed, looked up): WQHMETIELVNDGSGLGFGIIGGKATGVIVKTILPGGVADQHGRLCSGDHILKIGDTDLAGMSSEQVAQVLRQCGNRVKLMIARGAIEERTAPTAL

O60759 = molecular target: O60759
Q9C0E4 = molecular target: Q9C0E4
SHANK3, Q9BYB0 = molecular target: T2, SHANK3, Q9BYB0
T2 sequence (Q9BYB0 641-750, limits assumed, looked up): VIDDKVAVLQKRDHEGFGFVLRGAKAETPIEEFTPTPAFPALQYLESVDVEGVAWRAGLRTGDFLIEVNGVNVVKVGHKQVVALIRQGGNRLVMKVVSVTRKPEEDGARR

NHERF2_1, Q15599 = molecular target: NHERF2_1, Q15599
MPDZ_7, O75970 = molecular target: T3, MPDZ_7, O75970
T3 sequence (O75970 1146-1253, limits assumed, looked up): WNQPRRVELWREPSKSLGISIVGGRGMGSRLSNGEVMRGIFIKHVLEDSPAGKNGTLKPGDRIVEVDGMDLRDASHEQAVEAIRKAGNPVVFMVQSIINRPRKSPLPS

Q9Y3R0 = molecular target: Q9Y3R0
Q9UDY2 = molecular target: Q9UDY2
PDLIM3, Q53GG5 = molecular target: T4, PDLIM3, Q53GG5
T4 sequence (Q53GG5 1-94, limits assumed, looked up): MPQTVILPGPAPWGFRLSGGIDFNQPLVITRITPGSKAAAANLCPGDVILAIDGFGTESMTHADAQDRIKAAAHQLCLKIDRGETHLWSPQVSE

Q96HC4 = molecular target: Q96HC4
PREX1_1, Q8TCU6 = molecular target: PREX1_1, Q8TCU6
MAST3, O60307 = molecular target: MAST3, O60307
CNKSR1, Q969H4 = molecular target: T5, CNKSR1, Q969H4
T5 sequence (Q969H4 191-295, limits assumed, looked up): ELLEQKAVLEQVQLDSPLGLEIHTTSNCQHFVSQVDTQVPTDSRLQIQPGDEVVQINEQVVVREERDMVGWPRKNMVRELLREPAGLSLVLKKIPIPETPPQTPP

CARD14, Q9BXL6 = molecular target: CARD14, Q9BXL6
Q13368 = molecular target: Q13368
Q9ULJ8 = molecular target: Q9ULJ8
LMO7, Q8WWI1 = molecular target: LMO7, Q8WWI1
CNKSR3, Q6P9H4 = molecular target: CNKSR3, Q6P9H4
MPDZ_13, O75970 = molecular target: T6, MPDZ_13, O75970
T6 sequence (O75970 1982-2070, limits assumed, looked up): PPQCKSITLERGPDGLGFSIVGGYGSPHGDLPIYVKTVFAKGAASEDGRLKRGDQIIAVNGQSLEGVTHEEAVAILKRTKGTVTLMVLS

PARD6G, Q9BYG4 = molecular target: T7, PARD6G, Q9BYG4
T7 sequence (Q9BYG4 153-261, limits assumed, looked up): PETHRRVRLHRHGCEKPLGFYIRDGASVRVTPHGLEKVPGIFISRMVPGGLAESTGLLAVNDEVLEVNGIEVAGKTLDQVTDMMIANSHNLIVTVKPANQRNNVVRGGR

PTPN13_5, Q12923 = molecular target: T8, PTPN13_5, Q12923
T8 sequence (Q12923 1877-1975, limits assumed, looked up): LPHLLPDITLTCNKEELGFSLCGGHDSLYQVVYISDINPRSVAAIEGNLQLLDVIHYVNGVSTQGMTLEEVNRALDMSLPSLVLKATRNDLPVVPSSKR

Q6ZWJ1 = molecular target: Q6ZWJ1
RIMS1, Q86UR5 = molecular target: RIMS1, Q86UR5
O75970 = molecular target: O75970
Q9NPB6 = molecular target: Q9NPB6
MAGI3_3, Q5TCQ9 = molecular target: MAGI3_3, Q5TCQ9
LIMK1, P53667 = molecular target: LIMK1, P53667
NHERF1_2, O14745 = molecular target: T9, NHERF1_2, O14745
T9 sequence (O14745 149-244, limits assumed, looked up): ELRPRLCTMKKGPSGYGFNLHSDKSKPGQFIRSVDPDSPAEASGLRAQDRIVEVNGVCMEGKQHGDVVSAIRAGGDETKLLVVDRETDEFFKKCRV

Q92614 = molecular target: Q92614

CARD14, Q9BXL6, sequence (Q9BXL6 558-663): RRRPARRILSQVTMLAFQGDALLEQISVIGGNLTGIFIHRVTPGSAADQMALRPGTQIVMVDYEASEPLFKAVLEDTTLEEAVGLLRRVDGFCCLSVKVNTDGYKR
MAST3, O60307, sequence (O60307 945-1048): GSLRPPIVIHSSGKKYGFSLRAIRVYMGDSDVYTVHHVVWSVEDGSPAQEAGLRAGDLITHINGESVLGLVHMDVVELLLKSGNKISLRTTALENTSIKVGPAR
MAGI3_3, Q5TCQ9, sequence (Q5TCQ9 572-655): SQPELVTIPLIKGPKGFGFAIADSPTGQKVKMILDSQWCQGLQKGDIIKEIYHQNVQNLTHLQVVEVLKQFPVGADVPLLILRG
NHERF2_1, Q15599, sequence (Q15599 9-91): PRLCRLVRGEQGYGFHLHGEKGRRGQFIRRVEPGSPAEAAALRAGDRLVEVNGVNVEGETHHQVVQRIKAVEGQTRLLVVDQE
PREX1_1, Q8TCU6, sequence (Q8TCU6 608-718): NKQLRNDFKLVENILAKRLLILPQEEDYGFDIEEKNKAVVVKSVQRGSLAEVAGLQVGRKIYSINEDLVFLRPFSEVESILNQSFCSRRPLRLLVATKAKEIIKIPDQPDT
GRIP2_2, Q9C0E4, sequence (Q9C0E4 137-245): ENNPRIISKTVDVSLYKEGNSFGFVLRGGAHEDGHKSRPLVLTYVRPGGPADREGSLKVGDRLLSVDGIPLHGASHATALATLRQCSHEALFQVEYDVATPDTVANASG
CNKSR3, Q6P9H4, sequence (Q6P9H4 203-303): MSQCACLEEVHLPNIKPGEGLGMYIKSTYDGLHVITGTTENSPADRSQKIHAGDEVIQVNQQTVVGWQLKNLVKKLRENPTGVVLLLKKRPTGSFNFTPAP
RIMS1, Q86UR5, sequence (Q86UR5 584-692): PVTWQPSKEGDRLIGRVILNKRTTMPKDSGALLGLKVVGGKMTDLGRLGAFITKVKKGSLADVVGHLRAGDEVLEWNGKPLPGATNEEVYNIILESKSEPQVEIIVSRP
LMO7, Q8WWI1, sequence (Q8WWI1 1037-1138): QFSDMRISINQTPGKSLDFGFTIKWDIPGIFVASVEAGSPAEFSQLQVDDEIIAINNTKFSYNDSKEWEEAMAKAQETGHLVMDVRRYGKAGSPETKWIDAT
LIMK1, P53667, sequence (P53667 155-268): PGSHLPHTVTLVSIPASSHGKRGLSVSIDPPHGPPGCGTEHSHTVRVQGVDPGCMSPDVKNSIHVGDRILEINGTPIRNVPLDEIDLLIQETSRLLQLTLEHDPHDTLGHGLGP

Binder	pKd (GRIP2_2, Q9C0E4)	pKd (MPDZ_2, O75970)	pKd (O60759)	pKd (Q9C0E4)	pKd (SHANK3, Q9BYB0)	pKd (NHERF2_1, Q15599)	pKd (MPDZ_7, O75970)	pKd (Q9Y3R0)	pKd (Q9UDY2)	pKd (PDLIM3, Q53GG5)	pKd (Q96HC4)	pKd (PREX1_1, Q8TCU6)	pKd (MAST3, O60307)	pKd (CNKSR1, Q969H4)	pKd (CARD14, Q9BXL6)	pKd (Q13368)	pKd (Q9ULJ8)	pKd (LMO7, Q8WWI1)	pKd (CNKSR3, Q6P9H4)	pKd (MPDZ_13, O75970)	further results
CLDTSRETDL [KCNA5, P22460]	below the threshold	below the threshold	below the threshold	below the threshold	below the threshold	below the threshold	below the threshold	below the threshold	below the threshold	below the threshold	below the threshold	below the threshold	below the threshold	below the threshold	below the threshold	below the threshold	below the threshold	below the threshold	below the threshold	below the threshold	pKd (PARD6G, Q9BYG4): below the threshold; pKd (PTPN13_5, Q12923): below the threshold; pKd (Q6ZWJ1): below the threshold; pKd (RIMS1, Q86UR5): below the threshold; pKd (O75970): below the threshold; pKd (Q9NPB6): below the threshold; pKd (MAGI3_3, Q5TCQ9): below the threshold; pKd (LIMK1, P53667): 4.3; pKd (NHERF1_2, O14745): below the threshold; pKd (Q92614): below the threshold
IQREDQETAV [DGKZ, Q13574]	below the threshold	below the threshold	below the threshold	below the threshold	below the threshold	below the threshold	below the threshold	below the threshold	below the threshold	below the threshold	below the threshold	below the threshold	below the threshold	below the threshold	below the threshold	below the threshold	below the threshold	below the threshold	below the threshold	below the threshold	pKd (PARD6G, Q9BYG4): below the threshold; pKd (PTPN13_5, Q12923): below the threshold; pKd (Q6ZWJ1): below the threshold; pKd (RIMS1, Q86UR5): below the threshold; pKd (O75970): below the threshold; pKd (Q9NPB6): below the threshold; pKd (MAGI3_3, Q5TCQ9): below the threshold; pKd (NHERF1_2, O14745): below the threshold; pKd (Q92614): below the threshold
QPGTPTRTAV [MAP2K2, P36507]	below the threshold	below the threshold	below the threshold	below the threshold	below the threshold	below the threshold	below the threshold	below the threshold	below the threshold	below the threshold	below the threshold	below the threshold	below the threshold	4.07	below the threshold	below the threshold	below the threshold	below the threshold	4.05	below the threshold	pKd (PARD6G, Q9BYG4): below the threshold; pKd (PTPN13_5, Q12923): below the threshold; pKd (Q6ZWJ1): below the threshold; pKd (RIMS1, Q86UR5): below the threshold; pKd (O75970): below the threshold; pKd (Q9NPB6): below the threshold; pKd (MAGI3_3, Q5TCQ9): below the threshold; pKd (LIMK1, P53667): 4.2; pKd (NHERF1_2, O14745): below the threshold; pKd (Q92614): below the threshold
HRTCYLVTQL [ASIC3, Q9UHC3]	4.28	below the threshold	below the threshold	below the threshold	5.52	4.56	4.73	below the threshold	below the threshold	below the threshold	below the threshold	3.99	4.04	below the threshold	below the threshold	below the threshold	below the threshold	below the threshold	below the threshold	below the threshold	pKd (PARD6G, Q9BYG4): below the threshold; pKd (PTPN13_5, Q12923): below the threshold; pKd (Q6ZWJ1): below the threshold; pKd (RIMS1, Q86UR5): below the threshold; pKd (O75970): below the threshold; pKd (Q9NPB6): below the threshold; pKd (MAGI3_3, Q5TCQ9): below the threshold; pKd (NHERF1_2, O14745): 4.35; pKd (Q92614): below the threshold
